Experimental data published in patent publication US20260266848A1, “COMPOSITIONS AND METHODS FOR DIAGNOSING AND TREATING DYSTONIA” (Duke University, priority 2023, published 2026).

Key:
[1] = tested on: WT MEF EVs; assay: Quantitative LC-MS/MS proteomics of EVs from ISRIB-treated WT MEF cultures; type: cell-based, mouse; set-up: key to ISRIB and DYT Parallel Direction / ISRIB and DYT Parallel Direction, Ctdsp1 / ISRIB and DYT Parallel Direction, Pcdh19 / ISRIB and DYT Parallel Direction, Tspan7 / ISRIB and DYT Parallel Direction, Myo1e / ISRIB and DYT Parallel Direction, Plpp3 / ISRIB and DYT Parallel Direction, Sh3bp4 / ISRIB and DYT Parallel Direction, Dnajc7 / ISRIB and DYT Parallel Direction, Drg1 / ISRIB and DYT Parallel Direction, Maea: YES = protein abundance effect similar to DYT/WT; conditions: EV protein abundance; for WT + ISRIB/WT Cohen's d: ISRIB-treated WT vs WT; for ISRIB and DYT Parallel Direction: WT + ISRIB vs WT, direction compared with DYT/WT
[2] = tested on: DYT-TOR1A MEF EVs; assay: Quantitative LC-MS/MS proteomics of EVs from drug-treated DYT-TOR1A MEF cultures (ritonavir, salubrinal); type: cell-based, mouse; set-up: key to RTV Corrective Direction / RTV Corrective Direction, Grwd1 / RTV Corrective Direction, Srrm2 / RTV Corrective Direction, Rbm17 / RTV Corrective Direction, Dcaf8 / RTV Corrective Direction, Edil3 / RTV Corrective Direction, Timp3 / RTV Corrective Direction, Heatr3 / RTV Corrective Direction, Brd4 / RTV Corrective Direction, P3h4 / RTV Corrective Direction, Pacsin3 / RTV Corrective Direction, Naa50 / RTV Corrective Direction, Lpar6 / RTV Corrective Direction, Ndrg1 / RTV Corrective Direction, Kntc1 / RTV Corrective Direction, Cdk11b / RTV Corrective Direction, Sumo1 / RTV Corrective Direction, Lsm4 / RTV Corrective Direction, Hmga2 / RTV Corrective Direction, Cstf1 / RTV Corrective Direction, Tes / RTV Corrective Direction, Sbno1 / RTV Corrective Direction, Unc119b / RTV Corrective Direction, Cfdp1 / RTV Corrective Direction, Sec61b: YES = protein abundance effect opposite to DYT/WT; conditions: EV protein abundance; for DYT + RTV/DYT Cohen's d: ritonavir (RTV)-treated DYT vs DYT; for RTV Corrective Direction: DYT + RTV (ritonavir) vs DYT, direction compared with DYT/WT

B1: Lnpep (protein, UniProt Q8C129 1-1025, looked up)
Leucyl-cystinyl aminopeptidase: MESFTNDRLQLPRNMIENSMFEEEPDVVDLAKEPCLHPLEPDEVEYEPRGSRLLVRGLGEHEMDEDEEDYESSAKLLGMSFMNRSSGLRNSAAGYRQSPDGTCSLPSARTLVICVFVIVVAVSVIMVIYLLPRCTFTKEGCHKTNQSAELIQPVATNGKVFPWAQIRLPTAIIPLCYELSLHPNLTSMTFRGSVTISLQALQDTRDIILHSTGHNISRVTFMSAVSSQEKQVEILEYPYHEQIAVVAPEPLLTGHNYTLKIEYSANISNSYYGFYGITYTDKSNEKKYFAATQFEPLAARSAFPCFDEPAFKATFIIKITRNEHHTALSNMPKKSSVPAEEGLIQDEFSESVKMSTYLVAFIVGEMRNLSQDVNGTLVSVYAVPEKIGQVHHALDTTIKLLEFYQTYFEIQYPLKKLDLVAIPDFEAGAMENWGLLTFREETLLYDNATSSVADRKLVTKIIAHELAHQWFGNLVTMQWWNDLWLNEGFATFMEYFSVEKIFKELNSYEDFLDARFKTMRKDSLNSSHPISSSVQSSEQIEEMFDSLSYFKGASLLLMLKSYLSEDVFRHAVILYLHNHSYAAIQSDDLWDSFNEVTDKTLDVKKMMKTWTLQKGFPLVTVQRKGTELLLQQERFFLRMQPESQPSDTSHLWHIPISYVTDGRNYSEYRSVSLLDKKSDVINLTEQVQWVKVNSNMTGYYIVHYAHDDWTALINQLKRNPYVLSDKDRANLINNIFELAGLGKVPLRMAFDLIDYLKNETHTAPITEALFQTNLIYNLLEKLGHMDLSSRLVARVHKLLQNQIQQQTWTDEGTPSMRELRSALLEFACAHSLENCTTMATNLFDSWMASNGTQSLPTDVMVTVFKVGARTEKGWLFLFSMYSSMGSEAEKNKILEALASSEDVHKLYWLMKSSLDGDIIRTQKLSLIIRTVGRHFPGHLLAWDFVKENWNKLVHKFHLGSYTIQSIVAGSTHLFSTKTHLSEVQAFFENQSEATLKLRCVQEALEVIQLNIQWMVRNLKTLSQWL
[1]
  WT + ISRIB/WT Cohen's d: −1.24
  ISRIB and DYT Parallel Direction: YES
[2]
  DYT + RTV/DYT Cohen's d: −0.39

B2: Idua (protein, UniProt P35475 28-653, looked up)
Alpha-L-iduronidase: APHLVHVDAARALWPLRRFWRSTGFCPPLPHSQADQYVLSWDQQLNLAYVGAVPHRGIKQVRTHWLLELVTTRGSTGRGLSYNFTHLDGYLDLLRENQLLPGFELMGSASGHFTDFEDKQQVFEWKDLVSSLARRYIGRYGLAHVSKWNFETWNEPDHHDFDNVSMTMQGFLNYYDACSEGLRAASPALRLGGPGDSFHTPPRSPLSWGLLRHCHDGTNFFTGEAGVRLDYISLHRKGARSSISILEQEKVVAQQIRQLFPKFADTPIYNDEADPLVGWSLPQPWRADVTYAAMVVKVIAQHQNLLLANTTSAFPYALLSNDNAFLSYHPHPFAQRTLTARFQVNNTRPPHVQLLRKPVLTAMGLLALLDEEQLWAEVSQAGTVLDSNHTVGVLASAHRPQGPADAWRAAVLIYASDDTRAHPNRSVAVTLRLRGVPPGPGLVYVTRYLDNGLCSPDGEWRRLGRPVFPTAEQFRRMRAAEDPVAAAPRPLPAGGRLTLRPALRLPSLLLVHVCARPEKPPGQVTRLRALPLTQGQLVLVWSDEHVGSKCLWTYEIQFSQDGKAYTPVSRKPSTFNLFVFSPDTGAVSGSYRVRALDYWARPGPFSDPVPYLEVPVPRGPPSPGNP
[1]
  WT + ISRIB/WT Cohen's d: 0.52
[2]
  DYT + RTV/DYT Cohen's d: −0.08

B3: Cul5 (protein, UniProt Q9D5V5 1-780, looked up)
Cullin-5: MATSNLLKNKGSLQFEDKWDFMHPIVLKLLRQESVTKQQWFDLFSDVHAVCLWDDKGSSKIHQALKEDILEFIKQAQARVLSHQDDTALLKAYIVEWRKFFTQCDILPKPFCQLEVTLLGKQSSNKKSNMEDSIVRKLMLDTWNESIFSNIKNRLQDSAMKLVHAERLGEAFDSQLVIGVRESYVNLCSNPEDKLQIYRDNFEKAYLDSTERFYRTQAPSYLQQNGVQNYMKYADAKLKEEEKRALRYLETRRECNSVEALMECCVNALVTSFKETILAECQGMIKRNETEKLHLMFSLMDKVPNGIEPMLKDLEEHIISAGLADMVAAAETITTDSEKYVEQLLTLFNRFSKLVKEAFQDDPRFLTARDKAYKAVVNDATIFKLELPLKQKGVGLKTQPESKCPELLANYCDMLLRKTPLSKKLTSEEIEAKLKEVLLVLKYVQNKDVFMRYHKAHLTRRLILDISADSEIEENMVEWLREVGMPADYVNKLARMFQDIKVSEDLNQAFKEMHKNNKLALPADSVNIKILNAGAWSRSSEKVFVSLPTELEDLIPEVEEFYKKNHSGRKLHWHHLMSNGIITFKNEVGQYDLEVTTFQLAVLFAWNQRPREKISFENLKLATELPDAELRRTLWSLVAFPKLKRQVLLYDPQVNSPKDFTEGTLFSVNQDFSLIKNAKVQKRGKINLIGRLQLTTERMREEENEGIVQLRILRTQEAIIQIMKMRKKISNAQLQTELVEILKNMFLPQKKMIKEQMEWLIEHRYIRRDEADINTFIYMA
[1]
  WT + ISRIB/WT Cohen's d: −3.39
  ISRIB and DYT Parallel Direction: YES
[2]
  RTV Corrective Direction: YES
  DYT + RTV/DYT Cohen's d: 13.04

B4: Serpinf1 (protein, UniProt P97298 20-417, looked up)
Pigment epithelium-derived …: QNVPSSSEGSPVPDSTGEPVEEEDPFFKVPVNKLAAAVSNFGYDLYRLRSSASPTGNVLLSPLSVATALSALSLGAEHRTESVIHRALYYDLITNPDIHSTYKELLASVTAPEKNLKSASRIVFERKLRVKSSFVAPLEKSYGTRPRILTGNPRVDLQEINNWVQAQMKGKIARSTREMPSALSILLLGVAYFKGQWVTKFDSRKTTLQDFHLDEDRTVRVPMMSDPKAILRYGLDSDLNCKIAQLPLTGSMSIIFFLPLTVTQNLTMIEESLTSEFIHDIDRELKTIQAVLTVPKLKLSFEGELTKSLQDMKLQSLFESPDFSKITGKPVKLTQVEHRAAFEWNEEGAGSSPSPGLQPVRLTFPLDYHLNQPFLFVLRDTDTGALLFIGRILDPSST
[1]
  WT + ISRIB/WT Cohen's d: −1.83
[2]
  DYT + RTV/DYT Cohen's d: 1.47

B5: Canx (protein, UniProt P35564 21-591, looked up)
Calnexin: HDGHDDDAIDIEDDLDDVIEEVEDSKSKSDASTPPSPKVTYKAPVPTGEVYFADSFDRGSLSGWILSKAKKDDTDDEIAKYDGKWEVDEMKETKLPGDKGLVLMSRAKHHAISAKLNKPFLFDTKPLIVQYEVNFQNGIECGGAYVKLLSKTAELSLDQFHDKTPYTIMFGPDKCGEDYKLHFIFRHKNPKTGVYEEKHAKRPDADLKTYFTDKKTHLYTLILNPDNSFEILVDQSVVNSGNLLNDMTPPVNPSREIEDPEDRKPEDWDERPKIADPDAVKPDDWDEDAPSKIPDEEATKPEGWLDDEPEYIPDPDAEKPEDWDEDMDGEWEAPQIANPKCESAPGCGVWQRPMIDNPNYKGKWKPPMIDNPNYQGIWKPRKIPNPDFFEDLEPFKMTPFSAIGLELWSMTSDIFFDNFIISGDRRVVDDWANDGWGLKKAADGAAEPGVVLQMLEAAEERPWLWVVYILTVALPVFLVILFCCSGKKQSNAMEYKKTDAPQPDVKDEEGKEEEKNKRDEEEEEEKLEEKQKSDAEEDGVTGSQDEEDSKPKAEEDEILNRSPRNRKPRRE
[1]
  WT + ISRIB/WT Cohen's d: 0.64
[2]
  DYT + RTV/DYT Cohen's d: −0.16

B6: Kpna4 (protein, UniProt O35343 2-521, looked up)
Importin subunit alpha-3: ADNEKLDNQRLKNFKNKGRDLETMRRQRNEVVVELRKNKRDEHLLKRRNVPQEDICEDSDIDGDYRVQNTSLEAIVQNASSDNQGIQLSAVQAARKLLSSDRNPPIDDLIKSGILPILVHCLERDDNPSLQFEAAWALTNIASGTSEQTQAVVQSNAVPLFLRLLHSPHQNVCEQAVWALGNIIGDGPQCRDYVISLGVVKPLLSFISPSIPITFLRNVTWVMVNLCRHKDPPPPMETIQEILPALCVLIHHTDVNILVDTVWALSYLTDAGNEQIQMVIDSGIVPHLVPLLSHQEVKVQTAALRAVGNIVTGTDEQTQVVLNCDALSHFPALLTHPKEKINKEAVWFLSNITAGNQQQVQAVIDANLVPMIIHLLDKGDFGTQKEAAWAISNLTISGRKDQVAYLIQQNVIPPFCNLLTVKDAQVVQVVLDGLSNILKMAEDQAETIANLIEECGGLEKIEQLQNHENEDIYKLAYEIIDQFFSSDDIDEDPSLVPESVQGGTFGFNSSTNVPTEGFQF
[1]
  WT + ISRIB/WT Cohen's d: −3.18
  ISRIB and DYT Parallel Direction: YES
[2]
  RTV Corrective Direction: YES
  DYT + RTV/DYT Cohen's d: 2.38

B7: Psmd8 (protein, UniProt Q9CX56 1-353, looked up)
26S proteasome non-ATPase …: MFIKGRAAKTPRGEPRRSSRGGRKLAVVAPPPVLGSTSRPHFRRESIARRRCRKSGRRLAASRKMAATAATVNGSTTVSSSGPAATSVGILQAAAGMYEQLKDEWNRKNPNLSKCGEELGRLKLVLLELNFLPTTGTKLTKQQLILARDILEIGAQWSILCKDIPSFERYMAQLKCYYFDYKEQLPESAYMHQLLGLNLLFLLSQNRVAEFHTELERLPAKDIQTNVYIKHPVSLEQYLMEGSYNKVFLAKGNIPAESYTFFIDILLDTIRDEIAGCIEKAYEKILFAEATRILFFSTPKKMTDYAKKRGWVLGPNNYYSFASQQQKPEDSTIPSTELAKQVIEYARQLEMIV
[1]
  WT + ISRIB/WT Cohen's d: −3.31
  ISRIB and DYT Parallel Direction: YES
[2]
  RTV Corrective Direction: YES
  DYT + RTV/DYT Cohen's d: 23.45
